Source: patent US20240368285A1 (HEFEI TG IMMUNOPHARMA, published 2024)

Experiments:
[1] = target: T1, MICA protein (SPR analyte) (human, UniProt Q29983 24-308, limits assumed); experiment: SPR, Biacore 8K, antibody captured on protein A chip, MICA as analyte
T1 construct: also called major histocompatibility complex class I chain related polypeptide A
T1 sequence: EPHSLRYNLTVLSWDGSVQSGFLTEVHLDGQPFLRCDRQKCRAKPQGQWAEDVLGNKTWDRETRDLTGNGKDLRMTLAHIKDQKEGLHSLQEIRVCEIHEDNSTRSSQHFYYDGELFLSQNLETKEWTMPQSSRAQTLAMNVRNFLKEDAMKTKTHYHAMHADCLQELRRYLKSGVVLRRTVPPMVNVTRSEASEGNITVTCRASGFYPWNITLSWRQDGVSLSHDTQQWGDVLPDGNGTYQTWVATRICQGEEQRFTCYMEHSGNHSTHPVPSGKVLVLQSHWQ
Experimental: In a Biacore 8K (Cytiva) system, the antibody was diluted to a concentration of 10 µg/mL with running buffer (HBS-EP), and the antibody was conjugated onto a protein A (Cytiva, 29127556) chip at a flow rate of […].
Kinetic and affinity data of binding of the maternal antibody h5A1 and the affinity maturation antibody h5A1002 and MICA were detected.

[2] = target: T2, MICA002α3-Fc (human); experiment: ELISA on coated MICA*002 α3-Fc (1 µg/ml), HRP anti-human Fab secondary, OD450
T2 construct: Produced in the Applicant's laboratory; also called MICA*002-Fc; domain α3 of MICA-002 Fc fusion protein
T2 sequence (chain, as listed by the source limits assumed): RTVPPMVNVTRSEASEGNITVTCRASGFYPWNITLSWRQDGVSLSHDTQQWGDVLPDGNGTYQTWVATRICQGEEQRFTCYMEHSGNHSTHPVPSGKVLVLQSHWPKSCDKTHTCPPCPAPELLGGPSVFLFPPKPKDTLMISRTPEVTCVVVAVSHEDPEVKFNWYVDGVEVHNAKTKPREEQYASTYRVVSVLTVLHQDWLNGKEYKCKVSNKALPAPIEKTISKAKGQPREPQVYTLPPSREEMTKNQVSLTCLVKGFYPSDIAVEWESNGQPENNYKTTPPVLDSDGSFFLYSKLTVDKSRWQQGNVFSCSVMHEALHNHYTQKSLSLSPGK
Experimental: (§1) After the antibodies were added, signal intensity was used for judging the binding characteristics of the antibodies and MICA and MICB.
(§2) The fusion proteins (produced in the Applicant's laboratory; an amino acid sequence of MICA002α3-Fc is as set forth in SEQ ID NO: 22; an amino acid sequence of MICA005α3-Fc is as set forth in SEQ ID NO: 24; an amino acid sequence of MICA008α3-Fc is as set forth in SEQ ID NO: 25; an amino acid sequence of MICA004α3-Fc is as set forth in SEQ ID NO: 23; an amino acid sequence of MICB001α3-Fc is as set forth in SEQ ID NO: 26; and an amino acid sequence of MICB005α3-Fc is as set forth in SEQ ID NO: 27) were diluted to a concentration of 1 μg/ml with PBS and then added into a 96-well plate in a volume of 100 μl/well. The plate was placed at 4° C. overnight. The PBS in the 96-well plate was removed by sucking. After the plate was washed with PBST (that is, PBS having a pH value of 7.2 included 0.1 volume % of Tween 20) for 6 times, PBS containing 10% of BSA was added in a volume of 200 μl/well. The plate was incubated at 37° C. for 2 hours for blocking. The blocking solution was removed. […]

[3] = target: T3, MICA005α3-Fc (human); experiment: ELISA on coated MICA*005 α3-Fc (1 µg/ml), HRP anti-human Fab secondary, OD450
T3 construct: also called MICA*005-Fc; domain α3 of MICA-005 Fc fusion protein
T3 sequence (chain, as listed by the source limits assumed): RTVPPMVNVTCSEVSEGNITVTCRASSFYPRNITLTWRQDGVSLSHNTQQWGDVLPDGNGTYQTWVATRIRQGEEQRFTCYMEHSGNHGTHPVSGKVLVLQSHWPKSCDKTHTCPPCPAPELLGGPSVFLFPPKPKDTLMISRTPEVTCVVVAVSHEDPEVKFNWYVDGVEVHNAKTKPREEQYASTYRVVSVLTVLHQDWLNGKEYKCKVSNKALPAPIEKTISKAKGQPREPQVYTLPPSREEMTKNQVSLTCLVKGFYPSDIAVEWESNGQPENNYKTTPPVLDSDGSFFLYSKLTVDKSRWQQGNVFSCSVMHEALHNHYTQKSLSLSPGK
Experimental: as §1, §2

[4] = target: T4, MICA008α3-Fc (human); experiment: ELISA on coated MICA*008 α3-Fc (1 µg/ml), HRP anti-human Fab secondary, OD450
T4 construct: also called MICA*008-Fc; domain α3 of MICA-008 Fc fusion protein
T4 sequence (chain, as listed by the source limits assumed): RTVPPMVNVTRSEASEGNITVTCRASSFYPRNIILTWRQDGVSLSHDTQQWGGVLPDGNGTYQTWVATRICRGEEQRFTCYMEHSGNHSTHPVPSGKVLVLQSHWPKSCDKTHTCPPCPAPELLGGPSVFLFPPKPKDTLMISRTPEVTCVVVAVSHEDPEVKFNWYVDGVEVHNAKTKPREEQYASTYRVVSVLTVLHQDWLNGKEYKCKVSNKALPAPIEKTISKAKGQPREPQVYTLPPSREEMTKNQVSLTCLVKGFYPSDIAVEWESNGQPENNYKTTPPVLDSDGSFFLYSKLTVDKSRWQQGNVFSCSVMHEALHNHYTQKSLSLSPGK
Experimental: as §1, §2

[5] = target: T5, MICA004α3-Fc (human); experiment: ELISA on coated MICA*004 α3-Fc (1 µg/ml), HRP anti-human Fab secondary, OD450
T5 construct: also called MICA*004-Fc; domain α3 of MICA-004 Fc fusion protein
T5 sequence (chain, as listed by the source limits assumed): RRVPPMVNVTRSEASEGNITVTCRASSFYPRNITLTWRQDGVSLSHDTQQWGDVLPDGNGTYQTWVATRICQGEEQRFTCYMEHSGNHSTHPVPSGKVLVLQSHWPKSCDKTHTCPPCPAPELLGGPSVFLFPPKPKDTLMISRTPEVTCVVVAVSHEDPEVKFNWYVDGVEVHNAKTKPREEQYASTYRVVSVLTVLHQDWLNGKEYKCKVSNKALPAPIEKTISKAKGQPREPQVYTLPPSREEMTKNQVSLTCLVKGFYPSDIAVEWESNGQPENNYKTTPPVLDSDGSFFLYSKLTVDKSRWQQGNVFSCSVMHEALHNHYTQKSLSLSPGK
Experimental: as §1, §2

[6] = target: T6, MICB001α3-Fc; experiment: ELISA on coated MICB*001 α3-Fc (1 µg/ml), HRP anti-human Fab secondary, OD450
T6 construct: also called MICB*001-Fc; domain α3 of MICB-001 Fc fusion protein
T6 sequence (chain, as listed by the source limits assumed): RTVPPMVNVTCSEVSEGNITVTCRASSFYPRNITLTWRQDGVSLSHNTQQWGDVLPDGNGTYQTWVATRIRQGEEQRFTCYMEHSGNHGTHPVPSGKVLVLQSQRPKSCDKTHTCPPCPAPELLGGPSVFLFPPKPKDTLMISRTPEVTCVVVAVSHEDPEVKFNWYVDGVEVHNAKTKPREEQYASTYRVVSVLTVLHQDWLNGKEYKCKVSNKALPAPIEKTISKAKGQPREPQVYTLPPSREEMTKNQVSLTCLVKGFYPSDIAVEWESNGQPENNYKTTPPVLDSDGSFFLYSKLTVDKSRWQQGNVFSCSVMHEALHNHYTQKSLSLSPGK
Experimental: as §1, §2

[7] = target: T7, MICB005α3-Fc; experiment: ELISA on coated MICB*005 α3-Fc (1 µg/ml), HRP anti-human Fab secondary, OD450
T7 construct: also called MICB*005-Fc; domain α3 of MICB-005 Fc fusion protein
T7 sequence (chain, as listed by the source limits assumed): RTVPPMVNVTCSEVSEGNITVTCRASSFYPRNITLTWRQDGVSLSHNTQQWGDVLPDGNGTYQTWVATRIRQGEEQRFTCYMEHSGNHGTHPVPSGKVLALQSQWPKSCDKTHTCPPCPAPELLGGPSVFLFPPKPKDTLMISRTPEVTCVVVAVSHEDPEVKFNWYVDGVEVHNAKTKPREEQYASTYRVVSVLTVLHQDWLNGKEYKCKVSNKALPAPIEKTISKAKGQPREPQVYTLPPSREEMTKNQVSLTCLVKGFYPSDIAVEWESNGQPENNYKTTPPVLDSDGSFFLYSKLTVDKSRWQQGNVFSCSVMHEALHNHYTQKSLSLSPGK
Experimental: as §1, §2

[8] = target: T8, MICA on human tumor cells (A-375, A549, HCT-15, MDA-MB-231) (human, UniProt Q29983 24-383); experiment: flow cytometry on HCT-15 cells, Alexa-647 goat anti-human secondary, average fluorescence intensity
T8 construct: whole, on cells
T8 sequence (looked up): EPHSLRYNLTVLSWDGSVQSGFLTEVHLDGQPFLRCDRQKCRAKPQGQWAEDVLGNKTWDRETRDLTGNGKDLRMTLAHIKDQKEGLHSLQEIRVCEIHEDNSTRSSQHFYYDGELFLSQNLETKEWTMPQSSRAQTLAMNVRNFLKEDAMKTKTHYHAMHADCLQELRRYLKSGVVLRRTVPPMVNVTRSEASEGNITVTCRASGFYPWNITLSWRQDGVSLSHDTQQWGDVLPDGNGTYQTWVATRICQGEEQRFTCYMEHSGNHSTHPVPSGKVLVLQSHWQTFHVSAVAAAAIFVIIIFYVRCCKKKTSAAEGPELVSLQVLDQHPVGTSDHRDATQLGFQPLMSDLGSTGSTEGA
Experimental: (1) Tumor cells were diluted to a density of 2×10⁶/mL with PBS and then added into a 1.5 ml EP tube in a volume of 100 l/tube. 10 l/tube of goat serum was added into the EP tube; and blocking was conducted at 4° C. for 30 min. Antibody h5A1 (having a heavy chain sequence as set forth in SEQ ID NO: 11 and a light chain sequence as set forth in SEQ ID NO: 12), antibody h5A1002 (having a heavy chain sequence as set forth in SEQ ID NO: 13 and a light chain sequence as set forth in SEQ ID NO: 14), and control IgG1 (purchased from Biointron) were gradient-diluted (at a highest working concentration of 50 μg/ml, 10 gradients, diluted by 3 times for each gradient) and added. The tube was incubated at 4° C. for 30 min. 1 mL of PBS was added into the EP tube, and centrifugation was conducted 4° C. at a rate of 3,500 rpm for 5 min. The supernatant was removed. The EP tube was washed once with the PBS. The supernatant was removed after centrifugation. The cells were resuspended with PBS in a volume of 100 l/tube. An Alexa-647 labeled goat anti-human secondary antibody (purchased from Jackson lab) was added into the tube in a volume of 1 l/tube; and the plate was incubated in the dark at 4° C. for 30 min. The tube was washed twice with PBS, and the supernatant was removed after centrifugation. […]

Kd [1]: 215 nM
koff [1]: 0.000641 s⁻¹
kon [1]: 2970 M⁻¹ s⁻¹
EC50 (read off the curve) [2]: ~0.3 µg/mL
EC50 (read off the curve) [3]: ~0.4 µg/mL
binding result [4]: binds
EC50 (read off the curve) [5]: ~0.07 µg/mL
EC50 (read off the curve) [6]: ~0.07 µg/mL
EC50 (read off the curve) [7]: ~0.05 µg/mL
EC50 (read off the curve) [8]: ~3 µg/mL
B1: maternal humanized antibody h5A1 (antibody, human IgG1, kappa, V domains shown)
VH: QVQLQESGPGLVKPSETLSLTCTVSGFSLTTYGVHWIRQPPGKGLEWIGMIWTDGTTDYNAAFISRVTISVDTSKNQFSLKLSSVTAADTAVYYCARKGHGYYYAMDYWGQGTLVTVSS
VL: EIVLTQSPGTLSLSPGERATLSCTASSSVSSSYLHWYQQKPGQAPRLLIYSTSNLASGIPDRFSGSGSGTDFTLTISRLEPEDFAVYYCHQYHRSPFTFGQGTKLEIKR
notes: Human IgG1, kappa; The full chains are stated for the ELISA and flow cytometry; also called h5A1-hIgG1; maternal antibody h5A1
